# B1: 2F5 IgA2 (antibody, V domains shown)
# VH: RITLKESGPPLVKPTQTLTLTCSFSGFSLSDFGVGVGWIRQPPGKALEWLAIIYSDDDKRYSPSLNTRLTITKDTSKNQVVLVMTRVSPVDTATYFCAHRRGPTTLFGVPIARGPVNAMDVWGQGITVTI
# VL: ALQLTQSPSSLSASVGDRITITCRASQGVTSALAWYRQKPGSPPQLLIYDASSLESGVPSRFSGSGSGTEFTLTISTLRPEDFATYYCQQLHFYPHTFGGGTRVDVR
# B2: 2F5 IgG1 (antibody, V domains shown)
# VH: B1 VH
# VL: B1 VL
# Assays:
# Assay in all cases: cell-based or functional assay
# [1] = biological target: HIV-1 JR-CSF envelope (on virions) (HIV-1 JR-CSF (clade B, R5 tropic), UniProt P20871 32-848)
# [2] = biological target: T1, HIV-1 R5 tropic QH0692.42 envelope (on pseudovirus) (HIV-1 QH0692.42)
# [3] = biological target: T1, HIV-1 R5 tropic QH0692.42 envelope (on …); remark: listed apart in the source
Binder,"IC50 times lower than 2F5 IgG1, CEM-CCR5+ neutralization [1] [fold]","IC99 times lower than 2F5 IgG1, CEM-CCR5+ neutralization [1] [fold]","IC50 times lower than that of 2F5 IgG1, TZM-bl assay [2] [fold]","IC90 times lower than that of 2F5 IgG1, TZM-bl assay [2] [fold]","IC50%, neutralization of envelope pseudotyped HIV-1 in TZM-bl assay (luciferase) [3] [pM]"
B1,33,20,8.33,23.8,24
B2,,,,,200

# — patent US20150004190A1 (INSTITUT NATIONAL DE LA SANTE ET DE LA RECHERCHE MEDICALE …, published 2015)
